Experimental data from publication PMC7971878.
pKd: −log10 of the molar value.

Columns and labels:
[1] = biological target: CSFV sE2 (soluble E2 protein, 693-1020aa) with (His)6 tag (classical swine fever virus); test: SPR; Biacore […] (20 μg/ml) […]; 20 mM Hepes, 150 mM NaCl, 0.005% Tween 20, pH 7.4, […]; 1:1 binding model
[2] = biological target: CSFV sE2 (soluble E2 protein, 693-1020aa) with (His)6 tag (classical swine fever virus); test: SPR; Biacore T100; […] (20 μg/ml) […]; 20 mM Hepes, 150 mM NaCl, 0.005% Tween 20, pH 7.4, […]; 1:1 binding model

Work on “soluble metalloproteinase domain of pig ADAM17 (sMP) with (His)6 tag (from UniProt O77636 18-477) (domain or fragment)” yielded a pKd [1] of 5.49 and a pKd [2] of 7.00.
